What all share (assay): EMSA; EMSA: 25 mM Tris-HCl pH 7.5, 1 mM DTT, 5 mM MgCl2, 100 mM NaCl, 20 min at 37 C; 10 nM substrate; protein 22-167 nM (RPA 5-40 nM); 7.5% native PAGE, 0.5x TBE, 4
(In EMSA bound probe runs differently from free probe, usually more slowly.)

One series concerns the target hSSB1 (Homo sapiens, UniProt Q9BQ15 1-211). As to conditions: protein: recombinant, tags: His6 (2BT).
The target of a further series is RPA (UniProt P27694;P15927;P35244 1-616;1-270;1-121). As to conditions: protein: recombinant; copies: 1;1;1; label: 5' Cy3; single strand.
Sequence of RPA (P27694 whole entry, chain 1 of 3): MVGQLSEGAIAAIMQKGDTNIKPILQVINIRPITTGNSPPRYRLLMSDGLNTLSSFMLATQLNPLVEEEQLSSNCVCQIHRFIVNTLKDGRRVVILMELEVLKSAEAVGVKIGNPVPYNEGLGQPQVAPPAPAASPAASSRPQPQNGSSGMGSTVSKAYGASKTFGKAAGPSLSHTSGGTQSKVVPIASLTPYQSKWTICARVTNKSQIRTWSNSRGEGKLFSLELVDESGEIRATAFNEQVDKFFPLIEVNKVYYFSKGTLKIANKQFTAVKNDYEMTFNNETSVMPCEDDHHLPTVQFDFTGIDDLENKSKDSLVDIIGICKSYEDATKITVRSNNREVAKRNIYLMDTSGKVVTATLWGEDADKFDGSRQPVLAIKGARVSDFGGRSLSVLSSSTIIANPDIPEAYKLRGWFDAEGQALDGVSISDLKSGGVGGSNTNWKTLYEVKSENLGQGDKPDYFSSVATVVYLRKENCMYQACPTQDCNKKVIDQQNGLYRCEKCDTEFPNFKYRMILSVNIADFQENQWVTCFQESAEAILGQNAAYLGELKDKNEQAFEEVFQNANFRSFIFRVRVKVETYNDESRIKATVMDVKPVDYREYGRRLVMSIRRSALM
Sequence of RPA (P15927 whole entry, chain 2 of 3): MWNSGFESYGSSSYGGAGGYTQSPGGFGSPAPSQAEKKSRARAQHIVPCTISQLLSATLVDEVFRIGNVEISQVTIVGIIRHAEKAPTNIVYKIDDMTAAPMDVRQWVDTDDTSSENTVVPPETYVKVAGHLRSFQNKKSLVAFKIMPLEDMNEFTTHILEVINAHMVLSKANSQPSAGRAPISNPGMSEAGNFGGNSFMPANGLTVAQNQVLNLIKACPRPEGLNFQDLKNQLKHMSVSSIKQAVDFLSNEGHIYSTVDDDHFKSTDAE
Sequence of RPA (P35244 whole entry, chain 3 of 3): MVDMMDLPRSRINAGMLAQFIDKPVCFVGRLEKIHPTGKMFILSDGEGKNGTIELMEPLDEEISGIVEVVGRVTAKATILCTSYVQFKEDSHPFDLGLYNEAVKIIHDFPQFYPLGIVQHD
Another series concerns the target INTS3 (UniProt Q68E01 1-1043). As to conditions: protein: recombinant; tags: His6-TEV (438B); label: 5' Cy3; single strand.

Sequence of hSSB1 (Q9BQ15 whole entry): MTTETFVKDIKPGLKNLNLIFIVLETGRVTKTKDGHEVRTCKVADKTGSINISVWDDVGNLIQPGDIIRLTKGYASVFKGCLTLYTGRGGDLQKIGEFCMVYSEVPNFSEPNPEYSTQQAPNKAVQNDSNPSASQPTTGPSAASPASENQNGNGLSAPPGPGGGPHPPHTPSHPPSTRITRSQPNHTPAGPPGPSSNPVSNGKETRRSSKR
Sequence of INTS3 (Q68E01 whole entry): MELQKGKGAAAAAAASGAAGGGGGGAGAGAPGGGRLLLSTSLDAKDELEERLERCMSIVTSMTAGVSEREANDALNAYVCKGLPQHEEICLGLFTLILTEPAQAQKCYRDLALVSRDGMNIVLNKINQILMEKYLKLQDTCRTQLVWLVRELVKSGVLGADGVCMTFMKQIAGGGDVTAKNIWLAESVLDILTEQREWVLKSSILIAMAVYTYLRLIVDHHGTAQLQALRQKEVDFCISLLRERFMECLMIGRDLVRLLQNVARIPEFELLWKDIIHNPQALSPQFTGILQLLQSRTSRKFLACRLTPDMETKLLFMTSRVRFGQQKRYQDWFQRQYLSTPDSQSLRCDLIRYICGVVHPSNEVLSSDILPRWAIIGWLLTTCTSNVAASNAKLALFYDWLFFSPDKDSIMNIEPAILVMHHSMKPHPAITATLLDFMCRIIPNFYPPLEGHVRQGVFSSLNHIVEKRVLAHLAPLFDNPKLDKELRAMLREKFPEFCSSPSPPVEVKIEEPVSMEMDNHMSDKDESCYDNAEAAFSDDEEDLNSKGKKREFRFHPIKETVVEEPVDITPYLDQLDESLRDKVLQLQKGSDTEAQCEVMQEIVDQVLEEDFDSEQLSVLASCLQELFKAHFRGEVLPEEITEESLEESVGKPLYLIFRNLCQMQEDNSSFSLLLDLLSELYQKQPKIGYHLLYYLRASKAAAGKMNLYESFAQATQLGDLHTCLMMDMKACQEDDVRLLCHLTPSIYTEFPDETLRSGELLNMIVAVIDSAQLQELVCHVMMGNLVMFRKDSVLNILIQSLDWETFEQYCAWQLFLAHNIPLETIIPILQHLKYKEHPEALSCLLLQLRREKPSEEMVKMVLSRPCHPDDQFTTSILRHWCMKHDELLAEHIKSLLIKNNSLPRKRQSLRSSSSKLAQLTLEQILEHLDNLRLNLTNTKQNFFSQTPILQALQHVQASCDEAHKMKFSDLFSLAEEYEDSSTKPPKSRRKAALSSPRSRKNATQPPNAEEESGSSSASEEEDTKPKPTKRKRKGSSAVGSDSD

As for GTGCCTTGCTAGGACATCTTT (ssDNA) [21-mer ssDNA (pRMS630)], the binding result with hSSB1 (label: 5' Cy3, single strand) was “no binding”; in the series with RPA, “binds”.

B1: 61-mer ssDNA (ssDNA)
DNA: GACGCTGCCGAATTCTACCAGTGCCTTGCTAGGACATCTTTGCCCACCTGCAGGTTCACCC
Turning to B1, the binding result is listed as “binds” with hSSB1 (label: 5' Cy3, single strand); “no binding” with INTS3; “binds” with RPA.

B2: bubble DNA (dsDNA)
DNA 1: GACGCTGCCGAATTCTACCAGTGCCTTGCTAGGACATCTTTGCCCACCTGCAGGTTCACCC
DNA 2: GGGTGAACCTGCAGGTGGGCGGCTGCTCATCGTAGGTTAGTTGGTAGAATTCGGCAGCGTC
Take B2: in the series with hSSB1 (label: 5' Cy3 on strand 1, blunt, 21-nt central bubble), the binding result was “no binding”.

B3: R-loop (mixed)
DNA 1: GACGCTGCCGAATTCTACCAGTGCCTTGCTAGGACATCTTTGCCCACCTGCAGGTTCACCC
DNA 2: GGGTGAACCTGCAGGTGGGCGGCTGCTCATCGTAGGTTAGTTGGTAGAATTCGGCAGCGTC
RNA: AAAGAUGUCCUAGCAAGGCAC
For B3, in the series with hSSB1 (label: 5' Cy3 on strand 1, 21-nt RNA paired to strand 1 in a 21-nt bubble, 20-bp flanking duplexes), the binding result is recorded as “binds”.
